To fix the notation:
B1: glmS ribozyme (parent)
chain: AUAAAAGCGCCAGAACUACAGAAAUGUAGUUGACGAGGAGGAGGUUUAUCGAAUUUUCGGCGGAUGCCUCCAAA

± gives the standard error. This sample holds only a part of the variants without activity.

Variants of B1 are the subject of this series. Nature of the series: self-cleavage kobs at 10000 uM GlcN6P; higher = faster cleavage; RNA array. To be noted: with glucosamine-6-phosphate. The method, boiled down:
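kobs was derived by fitting per-tile medians to one- or two-exponential decays after normalising signals to baseline and to non-cleaving reference variants. Those signals came from barcoded ribozyme variants transcribed in situ by E. coli RNA polymerase on sequenced MiSeq chips, followed through a hybridised Cy3 probe at 37 °C and imaged over ~14 h. Glucosamine-6-phosphate (40 μM to 10 mM) in HEPES/KCl/Mg(OAc)2 buffer was flowed in. Weighted Michaelis–Menten fits across concentrations then gave kcat and KM.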
Regarding AUAAAAGCACCAGAACUACAGAAAUGUAGUUGACGAGGAGGAGGGUUAUCGAAUUUUCGGCGGAUGCUUCCAAA [G9A U45G C68U], the “self-cleavage kobs at 10000 uM GlcN6P” value is less than 1e-05 s⁻¹. Regarding AUAAAAGCGGCAGAACUACAGAAAUGUAGUUGACGAGGAGGAGGUUUAUCGAAUCUUCGGCGGAUGCCUCCAAA [C10G U55C], the “self-cleavage kobs at 10000 uM GlcN6P” value was less than 1e-05 s⁻¹. In the case of AUAAAAGCGCCAGAACUACAGAAAUGUAGUCGACGAGGAGGAGGUUUAUCGAAUUUUAGGCGUAUGCCUCCAAA [U31C C58A G63U] it was less than 1e-05 s⁻¹. In the case of AUAAAAGCGACAGACCUACAGAAAUGUAGUUGACGAGGAGGCGGUUUAUCGAAUGUUCGGCGGAUGCUUCCAAA [C10A A15C A42C U55G C68U] it was less than 1e-05 s⁻¹; in that of AUAAAAGCGCUAGAACUACAGAAAUGUAGUUGACGAGGAGGAGGUUUGUUGAAUUUUCGGCGGAUGCCUCUAAA [C11U A48G C50U C71U], less than 1e-05 s⁻¹; in that of AUAAAAGCGCAAGAACUACAGAAAUGUAGUUGACGAGGAGGAGGUUUAUCGAAUUUUCGGCGGAUGCCGCGAAA [C11A U69G C71G], 4.63e-05 ± 1.5e-05 s⁻¹. As to AUAAAAGCGCCAGAACUACAGAAAUGUAGUUGCCGAGAAGGAGGUUUAUCGAAUUUUAGGCGGAUGCCUCCAAA [A33C G38A C58A], the “self-cleavage kobs at 10000 uM GlcN6P” value was less than 1e-05 s⁻¹. With AUAAAAGCGCCAGAGCUACAGAAAUGUAGUUGACGAGGAGGAGGUUUAGCGAAUUUUCGACGGAUGCCUCCAAA [A15G U49G G60A], the “self-cleavage kobs at 10000 uM GlcN6P” value was less than 1e-05 s⁻¹.

In the case of AUAAAAGCGCCAGAACUACAGAAAUGUAGUUGACGAGGAGGAGGUAUAUAGAAUUUUCUGCGGAUGCCUCCAAA [U46A C50A G59U], the “self-cleavage kobs at 10000 uM GlcN6P” value is less than 1e-05 s⁻¹.

With AUAAAAGCGCCAGAACUACAGAAAUGUAGUUGACGAGGAGGAGGUUUAUCGUAUUUUCGGCGGAAGCCUCCAAA [A52U U65A], the “self-cleavage kobs at 10000 uM GlcN6P” value was 2.95e-05 ± 9.7e-06 s⁻¹. As to AUAAAAACGCCAGAACUACAGAAAUGUAGUUGACGAGGAGGAGGUUUAUCGAAUGUUCGGCGGAUGUCUGCAAA [G7A U55G C67U C70G], the “self-cleavage kobs at 10000 uM GlcN6P” value was 4.07e-05 ± 1.8e-05 s⁻¹. For AUAAAAGCGCCAGAACUACAGAAAUGUAGUUCACGAGGAGGAGGUUUCUCGAAUCUUCAGCGAAUGCCUCCAAA [G32C A48C U55C G59A G63A] the value was less than 1e-05 s⁻¹; for AUAAAAGCGUCAGAACUACAGAAAUGUAGUUGACGAGGAGGAUGUUUAUCGAAUUUUCGUCGGAUGCCUCCAAA [C10U G43U G60U], less than 1e-05 s⁻¹.

With AUAAAAGCGACAGAACUACAGAAAUGUAGUUGACGUGGUGGAGGUUUAUCGAAUUUUCGGCGGAUGCCUCCAAA [C10A A36U A39U], the “self-cleavage kobs at 10000 uM GlcN6P” value was less than 1e-05 s⁻¹. In the case of AUAAAAGCGCUAGAACUACAGAAAUGUAGUCGACGAGGAGGGGGUUUAUCGAUUUUUCGGCGGAUGCCUCCAAA [C11U U31C A42G A53U] it was 0.000372 ± 8e-05 s⁻¹. As to AUAAAAGCGCCAGAACUACAGAAAUGUAGUUGACGAGGACGAUGUUUAUCUAAUUUUCGGCGGAUGCCUCCAAA [G40C G43U G51U], the “self-cleavage kobs at 10000 uM GlcN6P” value is less than 1e-05 s⁻¹.

Take AUAAAAGUGCCAGAACUACAGAAAUGUAGUUGACGAGGAGGAGGUUUAUAUUAUUUUCGGCGGAUGCCUCCAAA [C8U C50A G51U A52U]: the “self-cleavage kobs at 10000 uM GlcN6P” value is less than 1e-05 s⁻¹.

Turning to AUAAAAGCGCCGGAACUACAGAAAUGUAGUUGACGAGGCGGAGGUUUAUCGAAUUUUCGGCGGAUUCCUCCAAA [A12G A39C G66U], the “self-cleavage kobs at 10000 uM GlcN6P” value is 6.62e-05 ± 1.8e-05 s⁻¹. As for AUAAACCCGCCAGAACUACAGAAAUGUAGUUAACGAGGAGGAGGUUUAUCGUAUUUUCGGCGGAUGCCUCCAAA [A6C G7C G32A A52U], the “self-cleavage kobs at 10000 uM GlcN6P” value was less than 1e-05 s⁻¹. For AUAAAAGCGCCAGAACUACAGAAAUGUAGCUGACGAGGAGGAGGUUUAUCGAAGUUUCGGCGGAUGGCUCCAAA [U30C U54G C67G] the value was 2.88e-05 ± 1.3e-05 s⁻¹; for AUAAAAGCGCCAGAACUACAGAAAUGUAGUUGACGAGGAGUUGGUUUAUCGAAUCUUCGGCGGAUGCCUGCAAA [G41U A42U U55C C70G], 0.000238 ± 4.7e-05 s⁻¹; for AUAAAAGCACCAGAACUACAGAAAUGUAGUUGACGAGGAGGAGGUUUAUCGAAUUCUGGGCGGAUGCCUCCAAA [G9A U56C C58G], less than 1e-05 s⁻¹. AUAAAAGCGCCAGAACUACAGAAAUGUAGUUAACGAGGAGGAGGUUUAUCGAAUUUUCGGCGGAUGCCGCAAAA [G32A U69G C71A]: the “self-cleavage kobs at 10000 uM GlcN6P” value worked out at 4.49e-05 ± 1.6e-05 s⁻¹. On to AUAAAAGCGUCAGAACUACAGAAAUGUAGUUGACGAGGAGGAGGUUUAUGGAUGCUUCGGCGGAUGCGUCCAAA [C10U C50G A53U U54G U55C C68G], for which the “self-cleavage kobs at 10000 uM GlcN6P” value is 6.48e-05 ± 2e-05 s⁻¹. Regarding AUAAAGGCGCCCGAACUACAGAAAUGUAGUUGGCGAGGAGGAGGAUUAUCGAAUUUUCGGCUGAUGCCUCCAAA [A6G A12C A33G U45A G62U], the “self-cleavage kobs at 10000 uM GlcN6P” value was less than 1e-05 s⁻¹. Take AUAAAAGCGCCAGAACUACAGAAAUGUAGUCGACGAGGAGGAGGUUUAUCGAAUUUUCGGCGGAUGGCUACAAA [U31C C67G C70A]: the “self-cleavage kobs at 10000 uM GlcN6P” value was less than 1e-05 s⁻¹.

Turning to AUAAAAGCGCCAGAACUACAGAAAUGUAGUUGACGAGGAAGAGGUUUAUCGAAUUUUCGGCGGAGGCCUCUAAA [G40A U65G C71U], the “self-cleavage kobs at 10000 uM GlcN6P” value came to 0.0033 ± 0.00061 s⁻¹. With AUAAAAGCGCCAUAUCUACAGAAAUGUAGUUGACGAGGAGGAGGUUUAUCGAAUUUUCGGCAGAUGCAUGCAAA [G13U A15U G62A C68A C70G], the “self-cleavage kobs at 10000 uM GlcN6P” value was less than 1e-05 s⁻¹. For AUAAAAUCGCCAGUACUACAGAAAUGUAGUUGACGAGCAGGAGGUUUAUCGAAUUUCCGUCGGAUGUCUCCAAA [G7U A14U G38C U57C G60U C67U], the “self-cleavage kobs at 10000 uM GlcN6P” value is less than 1e-05 s⁻¹.

AUAAAAACGCCAGAACUACAGAAAUGUAGUUGACGAGGAGGAGGUUUAUCGAAUUUAAGGCGGAUGCCUCCAAA [G7A U57A C58A]: the “self-cleavage kobs at 10000 uM GlcN6P” value is less than 1e-05 s⁻¹. As to AUAAAAGCGCCAGACGUACAGAAAUGUAGUAGACGAGGAGGAGGUUUAUCGAAUUUUCGGCGGAUGCCUCCAAA [A15C C16G U31A], the “self-cleavage kobs at 10000 uM GlcN6P” value came out at 0.000253 ± 7.3e-05 s⁻¹. On to AUAAAAGCGCCAGAACUAAAGAAAUGUAGUUGACGAGGAGGACGUUGAUCGAAUUUUCGGCGGAUGCCUCCAAA [C19A G43C U47G], for which the “self-cleavage kobs at 10000 uM GlcN6P” value was less than 1e-05 s⁻¹.

Take AUAAAAGCGCCAGAACUACAGAAAUGUAGUUCACGCGGAGGAGGUUUAUCCAAUUUUCGGCGGAUGCCUCCAAA [G32C A36C G51C]: the “self-cleavage kobs at 10000 uM GlcN6P” value is less than 1e-05 s⁻¹. Consider AUAAAAGCGCCAGAACUACAGAAAUGUAGUUGACGAGGCGGAGCUUUAUGGAAUGUUCGGCGGAUGUCUCCAAA [A39C G44C C50G U55G C67U], for which the “self-cleavage kobs at 10000 uM GlcN6P” value is less than 1e-05 s⁻¹.

With AUAAAAGCGCCAGAACUACAGAAAUGUAGUUAACGAGGAAGAGGUUUAUCGAAUUUUCGGCGGAUGCGUCCAAA [G32A G40A C68G], the “self-cleavage kobs at 10000 uM GlcN6P” value is less than 1e-05 s⁻¹.

In the case of AUAAAAGCGCCAGAACUACAGAAAUGUAGUUGACGAGUAGGAGGUUUAUGGAAUGUGCGGCGGAUGCCUCCAAA [G38U C50G U55G U57G], the “self-cleavage kobs at 10000 uM GlcN6P” value amounted to 7.32e-05 ± 2e-05 s⁻¹. For AUAAAAGCGCCAGAACUACAGAAAUGUAGUUGACGAGGUGGAGGUUUAUCGAAUCUUCGGCGGGUGCCUCCAAA [A39U U55C A64G], the “self-cleavage kobs at 10000 uM GlcN6P” value was 0.0229 ± 0.0073 s⁻¹.

Values taken from the supplement of paper PMC7125110.
